One data set addresses T1, Plakoglobin, P14923.
T1 chain: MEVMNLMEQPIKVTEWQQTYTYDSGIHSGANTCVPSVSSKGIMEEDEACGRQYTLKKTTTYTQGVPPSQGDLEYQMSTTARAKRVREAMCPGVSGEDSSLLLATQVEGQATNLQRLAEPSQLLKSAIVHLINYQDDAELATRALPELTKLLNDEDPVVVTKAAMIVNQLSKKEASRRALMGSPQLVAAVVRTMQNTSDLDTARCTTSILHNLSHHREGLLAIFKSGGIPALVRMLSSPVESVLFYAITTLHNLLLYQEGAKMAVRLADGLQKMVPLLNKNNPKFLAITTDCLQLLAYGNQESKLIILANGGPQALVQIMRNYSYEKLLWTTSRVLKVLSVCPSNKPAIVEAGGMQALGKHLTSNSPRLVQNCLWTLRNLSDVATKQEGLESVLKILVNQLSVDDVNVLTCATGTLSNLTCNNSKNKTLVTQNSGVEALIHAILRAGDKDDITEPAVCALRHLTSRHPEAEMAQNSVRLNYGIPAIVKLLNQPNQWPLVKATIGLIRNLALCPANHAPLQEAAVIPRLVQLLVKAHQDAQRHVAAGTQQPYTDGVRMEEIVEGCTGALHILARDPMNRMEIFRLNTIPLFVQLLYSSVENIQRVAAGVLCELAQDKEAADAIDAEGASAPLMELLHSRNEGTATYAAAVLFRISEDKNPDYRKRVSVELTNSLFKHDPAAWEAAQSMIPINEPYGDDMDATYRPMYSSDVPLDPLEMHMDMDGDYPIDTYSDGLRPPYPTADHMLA

For a further data set, the target named is T2, Corneodesmosin, Q15517.
T2 chain: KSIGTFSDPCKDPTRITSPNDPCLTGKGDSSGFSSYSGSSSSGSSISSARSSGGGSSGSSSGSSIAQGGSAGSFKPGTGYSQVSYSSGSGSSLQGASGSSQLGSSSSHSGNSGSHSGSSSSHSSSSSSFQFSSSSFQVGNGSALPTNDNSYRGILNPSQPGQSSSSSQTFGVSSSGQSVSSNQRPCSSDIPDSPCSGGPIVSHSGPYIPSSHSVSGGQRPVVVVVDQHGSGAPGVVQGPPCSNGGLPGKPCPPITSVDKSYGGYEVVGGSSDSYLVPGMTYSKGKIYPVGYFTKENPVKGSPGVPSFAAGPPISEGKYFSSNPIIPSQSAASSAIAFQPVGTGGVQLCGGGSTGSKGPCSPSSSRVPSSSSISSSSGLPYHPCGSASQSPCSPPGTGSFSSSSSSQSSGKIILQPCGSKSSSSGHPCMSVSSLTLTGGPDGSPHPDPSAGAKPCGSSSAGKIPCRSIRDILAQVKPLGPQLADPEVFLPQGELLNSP

In another data set the target is T3, Desmocollin 1, Q08554.
T3 chain: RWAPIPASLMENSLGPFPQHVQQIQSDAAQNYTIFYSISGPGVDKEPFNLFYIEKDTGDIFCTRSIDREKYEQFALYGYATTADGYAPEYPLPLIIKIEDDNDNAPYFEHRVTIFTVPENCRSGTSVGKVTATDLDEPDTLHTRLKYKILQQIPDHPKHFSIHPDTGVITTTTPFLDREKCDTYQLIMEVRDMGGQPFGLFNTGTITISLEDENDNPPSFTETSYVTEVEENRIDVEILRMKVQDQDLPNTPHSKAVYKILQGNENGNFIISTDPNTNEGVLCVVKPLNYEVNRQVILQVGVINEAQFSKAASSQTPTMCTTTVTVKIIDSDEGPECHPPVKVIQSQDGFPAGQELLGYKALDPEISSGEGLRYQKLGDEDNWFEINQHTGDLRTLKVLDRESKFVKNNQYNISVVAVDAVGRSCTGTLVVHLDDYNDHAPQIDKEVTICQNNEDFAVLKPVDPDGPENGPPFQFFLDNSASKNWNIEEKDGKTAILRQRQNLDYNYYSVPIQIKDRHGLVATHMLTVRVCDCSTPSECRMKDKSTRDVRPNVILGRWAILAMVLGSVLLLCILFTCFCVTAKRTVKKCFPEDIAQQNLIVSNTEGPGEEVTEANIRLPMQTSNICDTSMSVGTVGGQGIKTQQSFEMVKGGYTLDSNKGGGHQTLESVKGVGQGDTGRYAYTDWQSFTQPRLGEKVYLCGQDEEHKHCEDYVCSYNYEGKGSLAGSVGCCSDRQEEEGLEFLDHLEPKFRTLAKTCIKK

Another data set deals with T4, Desmoglein, Q02413.
T4 chain: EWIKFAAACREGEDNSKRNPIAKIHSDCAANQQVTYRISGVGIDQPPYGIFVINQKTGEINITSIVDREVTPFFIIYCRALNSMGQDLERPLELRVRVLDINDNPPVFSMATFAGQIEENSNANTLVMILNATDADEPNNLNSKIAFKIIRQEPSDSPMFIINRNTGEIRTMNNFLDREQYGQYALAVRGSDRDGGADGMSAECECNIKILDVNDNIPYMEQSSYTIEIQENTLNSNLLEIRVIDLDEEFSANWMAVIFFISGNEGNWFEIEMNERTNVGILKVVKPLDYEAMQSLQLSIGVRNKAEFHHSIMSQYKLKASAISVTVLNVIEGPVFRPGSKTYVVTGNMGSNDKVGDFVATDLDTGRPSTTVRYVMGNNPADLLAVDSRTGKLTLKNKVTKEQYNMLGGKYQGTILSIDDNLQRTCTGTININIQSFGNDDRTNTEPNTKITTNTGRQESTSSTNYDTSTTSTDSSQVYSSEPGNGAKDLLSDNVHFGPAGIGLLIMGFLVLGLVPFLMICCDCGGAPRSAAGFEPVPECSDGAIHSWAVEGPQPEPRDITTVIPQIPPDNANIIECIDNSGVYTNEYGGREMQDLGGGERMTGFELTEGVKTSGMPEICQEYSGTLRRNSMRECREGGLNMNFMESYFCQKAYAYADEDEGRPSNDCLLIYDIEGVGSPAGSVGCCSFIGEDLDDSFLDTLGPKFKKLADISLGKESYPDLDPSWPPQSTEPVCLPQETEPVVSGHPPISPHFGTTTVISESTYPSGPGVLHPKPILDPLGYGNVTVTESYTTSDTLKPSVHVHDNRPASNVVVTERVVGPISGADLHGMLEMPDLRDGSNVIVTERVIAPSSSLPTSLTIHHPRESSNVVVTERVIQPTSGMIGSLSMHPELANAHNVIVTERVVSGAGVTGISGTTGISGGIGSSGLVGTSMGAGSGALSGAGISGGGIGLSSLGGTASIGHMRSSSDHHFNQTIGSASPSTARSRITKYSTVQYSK

Sequence of Envoplakin, Q92817 (Q92817 whole entry): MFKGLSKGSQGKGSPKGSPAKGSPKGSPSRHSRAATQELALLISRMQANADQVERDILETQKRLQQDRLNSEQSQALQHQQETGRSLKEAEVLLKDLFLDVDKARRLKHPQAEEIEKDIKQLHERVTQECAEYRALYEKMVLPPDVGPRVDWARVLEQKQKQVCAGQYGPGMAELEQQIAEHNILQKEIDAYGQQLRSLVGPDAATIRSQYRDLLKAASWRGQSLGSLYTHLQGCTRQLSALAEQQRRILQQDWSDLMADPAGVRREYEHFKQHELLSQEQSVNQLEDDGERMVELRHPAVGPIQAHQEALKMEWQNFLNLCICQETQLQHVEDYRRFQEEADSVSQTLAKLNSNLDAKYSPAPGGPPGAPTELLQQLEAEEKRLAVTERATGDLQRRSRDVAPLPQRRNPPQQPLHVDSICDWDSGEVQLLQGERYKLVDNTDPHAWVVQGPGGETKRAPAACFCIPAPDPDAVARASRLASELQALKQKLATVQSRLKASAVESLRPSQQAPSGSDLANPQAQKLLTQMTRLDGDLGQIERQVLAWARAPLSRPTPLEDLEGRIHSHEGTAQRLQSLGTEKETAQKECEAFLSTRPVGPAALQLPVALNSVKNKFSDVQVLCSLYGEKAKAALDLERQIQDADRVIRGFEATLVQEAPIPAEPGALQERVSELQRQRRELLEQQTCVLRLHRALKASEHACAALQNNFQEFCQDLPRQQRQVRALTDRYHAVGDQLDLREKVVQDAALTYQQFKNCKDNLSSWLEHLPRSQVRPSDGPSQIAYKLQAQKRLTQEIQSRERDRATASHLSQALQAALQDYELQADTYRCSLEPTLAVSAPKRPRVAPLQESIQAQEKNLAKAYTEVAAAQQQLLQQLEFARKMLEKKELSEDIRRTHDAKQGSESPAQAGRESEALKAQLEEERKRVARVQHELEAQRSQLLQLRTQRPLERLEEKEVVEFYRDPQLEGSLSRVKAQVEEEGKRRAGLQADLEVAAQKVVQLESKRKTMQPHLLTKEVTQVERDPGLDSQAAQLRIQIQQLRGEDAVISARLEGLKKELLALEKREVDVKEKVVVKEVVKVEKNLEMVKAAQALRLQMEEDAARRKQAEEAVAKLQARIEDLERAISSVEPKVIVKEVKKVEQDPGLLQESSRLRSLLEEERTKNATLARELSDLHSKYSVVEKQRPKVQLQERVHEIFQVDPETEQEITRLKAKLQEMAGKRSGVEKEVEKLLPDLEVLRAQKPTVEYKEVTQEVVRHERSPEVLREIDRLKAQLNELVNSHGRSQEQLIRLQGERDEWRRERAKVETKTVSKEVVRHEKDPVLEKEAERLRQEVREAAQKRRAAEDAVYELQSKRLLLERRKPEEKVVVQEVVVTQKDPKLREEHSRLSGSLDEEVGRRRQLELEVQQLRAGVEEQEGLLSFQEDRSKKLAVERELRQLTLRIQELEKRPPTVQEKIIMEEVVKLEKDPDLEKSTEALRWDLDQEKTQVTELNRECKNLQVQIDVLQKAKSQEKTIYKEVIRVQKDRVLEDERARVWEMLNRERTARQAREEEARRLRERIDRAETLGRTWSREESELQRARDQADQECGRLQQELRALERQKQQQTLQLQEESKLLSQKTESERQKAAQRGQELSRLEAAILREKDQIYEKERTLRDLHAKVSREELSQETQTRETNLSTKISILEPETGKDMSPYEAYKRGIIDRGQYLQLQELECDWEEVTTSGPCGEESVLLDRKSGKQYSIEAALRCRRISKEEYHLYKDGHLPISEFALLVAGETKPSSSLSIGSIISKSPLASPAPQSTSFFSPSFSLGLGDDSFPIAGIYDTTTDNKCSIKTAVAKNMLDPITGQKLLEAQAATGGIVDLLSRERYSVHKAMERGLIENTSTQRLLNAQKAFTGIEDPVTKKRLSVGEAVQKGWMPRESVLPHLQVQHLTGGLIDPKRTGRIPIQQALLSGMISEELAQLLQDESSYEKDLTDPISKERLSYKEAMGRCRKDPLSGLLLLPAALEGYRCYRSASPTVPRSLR
Sequence of Desmoplakin, P15924 (P15924 whole entry): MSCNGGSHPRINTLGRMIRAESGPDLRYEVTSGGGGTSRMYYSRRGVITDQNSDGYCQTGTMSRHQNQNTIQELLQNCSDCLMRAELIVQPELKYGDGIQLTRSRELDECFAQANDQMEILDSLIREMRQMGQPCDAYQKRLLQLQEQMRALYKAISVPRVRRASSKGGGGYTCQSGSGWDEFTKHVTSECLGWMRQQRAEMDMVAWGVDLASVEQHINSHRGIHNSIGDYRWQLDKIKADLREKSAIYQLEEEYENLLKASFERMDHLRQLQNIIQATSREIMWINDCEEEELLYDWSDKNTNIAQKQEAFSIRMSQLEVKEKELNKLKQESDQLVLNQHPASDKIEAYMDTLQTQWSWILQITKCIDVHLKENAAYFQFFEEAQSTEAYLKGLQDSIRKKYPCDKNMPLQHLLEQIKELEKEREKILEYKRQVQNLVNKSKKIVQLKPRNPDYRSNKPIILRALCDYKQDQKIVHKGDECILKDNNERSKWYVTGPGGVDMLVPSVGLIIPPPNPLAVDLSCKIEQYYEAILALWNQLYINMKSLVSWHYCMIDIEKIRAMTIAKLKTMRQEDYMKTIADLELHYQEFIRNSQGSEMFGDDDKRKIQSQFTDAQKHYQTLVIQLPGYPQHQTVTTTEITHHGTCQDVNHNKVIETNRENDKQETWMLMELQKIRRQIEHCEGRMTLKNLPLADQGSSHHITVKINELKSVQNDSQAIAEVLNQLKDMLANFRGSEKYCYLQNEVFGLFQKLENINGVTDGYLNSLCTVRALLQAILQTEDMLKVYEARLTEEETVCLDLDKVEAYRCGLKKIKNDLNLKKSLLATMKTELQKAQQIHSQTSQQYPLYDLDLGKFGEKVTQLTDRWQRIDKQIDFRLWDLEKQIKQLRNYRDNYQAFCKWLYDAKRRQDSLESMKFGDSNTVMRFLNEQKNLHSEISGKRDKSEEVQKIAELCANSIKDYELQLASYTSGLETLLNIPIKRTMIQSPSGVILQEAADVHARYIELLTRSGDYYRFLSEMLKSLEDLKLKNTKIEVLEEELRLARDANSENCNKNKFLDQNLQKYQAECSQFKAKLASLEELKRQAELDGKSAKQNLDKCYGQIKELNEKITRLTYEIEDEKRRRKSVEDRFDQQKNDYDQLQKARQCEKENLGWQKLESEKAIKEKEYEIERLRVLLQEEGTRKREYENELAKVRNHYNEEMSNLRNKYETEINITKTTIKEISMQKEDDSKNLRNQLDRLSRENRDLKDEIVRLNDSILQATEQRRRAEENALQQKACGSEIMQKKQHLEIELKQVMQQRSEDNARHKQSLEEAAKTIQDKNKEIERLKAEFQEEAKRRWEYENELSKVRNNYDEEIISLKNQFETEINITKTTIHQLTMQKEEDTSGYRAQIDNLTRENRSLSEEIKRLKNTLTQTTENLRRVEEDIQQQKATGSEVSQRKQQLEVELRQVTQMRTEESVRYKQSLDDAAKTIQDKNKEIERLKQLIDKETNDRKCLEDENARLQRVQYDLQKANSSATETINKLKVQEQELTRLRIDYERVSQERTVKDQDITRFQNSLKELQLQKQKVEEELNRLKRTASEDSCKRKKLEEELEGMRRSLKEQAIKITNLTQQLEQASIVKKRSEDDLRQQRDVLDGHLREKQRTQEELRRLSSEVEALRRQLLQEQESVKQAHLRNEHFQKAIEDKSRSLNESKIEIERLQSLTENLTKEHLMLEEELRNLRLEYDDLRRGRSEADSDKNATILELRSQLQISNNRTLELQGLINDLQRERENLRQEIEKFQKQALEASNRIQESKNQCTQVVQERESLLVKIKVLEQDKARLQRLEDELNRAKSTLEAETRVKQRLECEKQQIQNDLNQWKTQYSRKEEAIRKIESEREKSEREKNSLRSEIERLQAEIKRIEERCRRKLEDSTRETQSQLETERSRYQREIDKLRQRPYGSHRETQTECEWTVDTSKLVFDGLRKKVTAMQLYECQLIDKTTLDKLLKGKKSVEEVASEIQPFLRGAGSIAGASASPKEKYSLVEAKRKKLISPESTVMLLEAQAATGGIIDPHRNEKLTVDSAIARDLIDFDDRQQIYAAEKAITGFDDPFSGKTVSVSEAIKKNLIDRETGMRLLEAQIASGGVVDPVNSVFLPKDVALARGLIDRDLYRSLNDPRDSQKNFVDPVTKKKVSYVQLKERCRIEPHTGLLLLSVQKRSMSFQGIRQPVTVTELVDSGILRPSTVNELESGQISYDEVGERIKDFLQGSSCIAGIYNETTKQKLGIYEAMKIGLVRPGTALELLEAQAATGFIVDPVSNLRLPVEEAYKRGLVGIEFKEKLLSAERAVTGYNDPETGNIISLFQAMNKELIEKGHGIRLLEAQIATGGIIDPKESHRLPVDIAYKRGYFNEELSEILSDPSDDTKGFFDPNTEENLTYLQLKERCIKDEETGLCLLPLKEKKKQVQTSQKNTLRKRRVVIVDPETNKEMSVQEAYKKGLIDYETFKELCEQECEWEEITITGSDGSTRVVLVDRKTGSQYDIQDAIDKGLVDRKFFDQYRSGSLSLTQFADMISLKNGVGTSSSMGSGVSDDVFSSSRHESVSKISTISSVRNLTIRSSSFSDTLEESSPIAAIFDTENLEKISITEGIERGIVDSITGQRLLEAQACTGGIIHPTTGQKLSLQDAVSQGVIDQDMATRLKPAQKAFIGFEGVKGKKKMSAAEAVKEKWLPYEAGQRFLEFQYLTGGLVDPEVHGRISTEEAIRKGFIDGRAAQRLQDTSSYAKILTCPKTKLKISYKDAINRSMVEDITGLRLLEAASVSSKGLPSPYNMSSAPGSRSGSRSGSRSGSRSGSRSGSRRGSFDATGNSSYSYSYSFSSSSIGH

B1: recombinant Stratum Corneum Chymotryptic Enzyme (SCCE), active form obtained from recombinant ProSCCE with agarose-bound trypsin (protein)
chain: EEAQGDKIIDGAPCARGSHPWQVALLSGNQLHCGGVLVNERWVLTAAHCKMNEYTVHLGSDTLGDRRAQRIKASKSFRHPGYSTQTHVNDLMLVKLNSQARLSSMVKKVRLPSRCEPPGTTCTVSGWGTTTSPDVTFPSDLMCVDVKLISPQDCTKVYKDLLENSMLCAGIPDSKKNACNGDSGGPLVCRGTLQGLVSWGTFPCGQPNDPGVYTQVCKFTKWINDTMKKHR
Regarding B1, the “proteolysis (immunoblot of human epidermis extract incubated with active SCCE)” value in the data set with Desmoplakin, P15924 is given as “Desmoplakin is found to be proteolysed by SCCE”; in the data set with Plakoglobin, P14923, “Plakoglobin is found to be proteolysed by recombinant SCCE”; in the data set with Corneodesmosin, Q15517, “Corneodesmosin is found to be proteolysed by recombinant SCCE”; with Envoplakin, Q92817, “Envoplakin is found to be proteolysed by SCCE”; with Desmocollin 1, Q08554, “Desmocollin is found to be proteolysed by SCCE”; with Desmoglein, Q02413 it was “Desmoglein is found to be proteolysed by SCCE”.

The record behind these values is patent US20080292615.
